Patent US20230295258A1 (KANAPH THERAPEUTICS, published 2023)
One block for each binder: values may come before it.

Molecular target: IL-12 receptor of human T cells (human, UniProt P42701 24-662; Q99665 24-862)
Assay: cell-based or functional assay

Sequence of IL-12 receptor of human T cells (Q99665 24-862, chain 2 of 2, other chains not shown): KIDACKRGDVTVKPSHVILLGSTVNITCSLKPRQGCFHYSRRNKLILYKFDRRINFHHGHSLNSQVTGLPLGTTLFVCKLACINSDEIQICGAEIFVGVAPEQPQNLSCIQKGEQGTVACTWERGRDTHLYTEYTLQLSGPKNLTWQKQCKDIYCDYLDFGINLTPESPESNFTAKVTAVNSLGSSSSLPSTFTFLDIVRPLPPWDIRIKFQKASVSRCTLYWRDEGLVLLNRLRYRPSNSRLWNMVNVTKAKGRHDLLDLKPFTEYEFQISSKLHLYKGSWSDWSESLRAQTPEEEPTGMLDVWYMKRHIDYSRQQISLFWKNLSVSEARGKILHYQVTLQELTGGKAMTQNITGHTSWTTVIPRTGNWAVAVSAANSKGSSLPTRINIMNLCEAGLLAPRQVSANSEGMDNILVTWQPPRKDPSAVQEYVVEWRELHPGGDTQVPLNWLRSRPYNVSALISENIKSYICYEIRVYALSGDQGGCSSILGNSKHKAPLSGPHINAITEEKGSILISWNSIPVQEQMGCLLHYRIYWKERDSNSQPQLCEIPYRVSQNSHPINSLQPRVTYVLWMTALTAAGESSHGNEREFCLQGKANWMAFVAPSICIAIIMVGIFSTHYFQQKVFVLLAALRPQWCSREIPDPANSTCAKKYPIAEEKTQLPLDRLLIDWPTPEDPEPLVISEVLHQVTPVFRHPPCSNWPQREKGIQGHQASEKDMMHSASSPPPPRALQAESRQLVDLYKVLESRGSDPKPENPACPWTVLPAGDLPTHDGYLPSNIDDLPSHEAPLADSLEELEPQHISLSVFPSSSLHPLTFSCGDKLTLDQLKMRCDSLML

change of the p-STAT4 EC50 in human T cells with low molecular weight heparin against without: 5.5 times
half maximal effective concentration (EC50) of p-STAT4 (Tyr693) in activated human T cells, AlphaLISA: 0.0565 nM
B1: T1.02 (anti-hu FAP/hu IL-12 mut1, hu IgG1 DANG) (bispecific antibody)
heavy: QVQLVQSGAEVKKPGASVKVSCKTSRYTFTEYTIHWVRQAPGQRLEWIGGINPNNGIPNYNQKFKGRVTITVDTSASTAYMELSSLRSEDTAVYYCARRRIAYGYDEGHAMDYWGQGTLVTVSSASTKGPSVFPLAPSSKSTSGGTAALGCLVKDYFPEPVTVSWNSGALTSGVHTFPAVLQSSGLYSLSSVVTVPSSSLGTQTYICNVNHKPSNTKVDKKVEPKSCDKTHTCPPCPAPELLGGPSVFLFPPKPKDTLMISRTPEVTCVVVAVSHEDPEVKFNWYVDGVEVHNAKTKPREEQYGSTYRVVSVLTVLHQDWLNGKEYKCKVSNKALPAPIEKTISKAKGQPREPQVYTLPPSRDELTKNQVSLWCLVKGFYPSDIAVEWESNGQPENNYKTTPPVLDSDGSFFLYSKLTVDKSRWQQGNVFSCSVMHEALHNHYTQKSLSLSPGK
light: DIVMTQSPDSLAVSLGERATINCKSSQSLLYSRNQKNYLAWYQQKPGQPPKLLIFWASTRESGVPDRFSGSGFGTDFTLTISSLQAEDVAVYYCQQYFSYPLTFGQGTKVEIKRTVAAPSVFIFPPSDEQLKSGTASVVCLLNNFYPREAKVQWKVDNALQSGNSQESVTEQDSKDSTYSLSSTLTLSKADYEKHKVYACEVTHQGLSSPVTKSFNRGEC
chain: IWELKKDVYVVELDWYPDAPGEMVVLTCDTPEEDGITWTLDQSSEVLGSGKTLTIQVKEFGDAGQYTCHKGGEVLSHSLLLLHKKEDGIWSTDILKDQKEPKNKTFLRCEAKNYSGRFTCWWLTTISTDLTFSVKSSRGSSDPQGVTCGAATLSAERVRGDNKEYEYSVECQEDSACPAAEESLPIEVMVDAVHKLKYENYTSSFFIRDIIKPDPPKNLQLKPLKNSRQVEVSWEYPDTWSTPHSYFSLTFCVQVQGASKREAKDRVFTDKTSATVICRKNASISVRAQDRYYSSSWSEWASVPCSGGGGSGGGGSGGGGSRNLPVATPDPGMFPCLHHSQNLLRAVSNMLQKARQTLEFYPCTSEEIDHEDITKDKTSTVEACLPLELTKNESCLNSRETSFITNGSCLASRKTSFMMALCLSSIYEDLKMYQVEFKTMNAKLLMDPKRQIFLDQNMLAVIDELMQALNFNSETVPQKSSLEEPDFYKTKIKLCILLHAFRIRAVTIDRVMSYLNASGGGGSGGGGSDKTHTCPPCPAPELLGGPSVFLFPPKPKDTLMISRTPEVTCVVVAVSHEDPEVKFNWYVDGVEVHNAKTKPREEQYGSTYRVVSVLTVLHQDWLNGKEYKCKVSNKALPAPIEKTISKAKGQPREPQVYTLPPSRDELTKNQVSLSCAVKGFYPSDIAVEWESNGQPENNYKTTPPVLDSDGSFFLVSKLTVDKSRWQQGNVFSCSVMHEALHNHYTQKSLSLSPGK

change of the p-STAT4 EC50 in human T cells with low molecular weight heparin against without: 4 times
half maximal effective concentration (EC50) of p-STAT4 (Tyr693) in activated human T cells, AlphaLISA: 0.147 nM
B2: T1.03 (anti-hu FAP/hu IL-12 mut2, hu IgG1 DANG) (bispecific antibody)
heavy: B1 heavy
light: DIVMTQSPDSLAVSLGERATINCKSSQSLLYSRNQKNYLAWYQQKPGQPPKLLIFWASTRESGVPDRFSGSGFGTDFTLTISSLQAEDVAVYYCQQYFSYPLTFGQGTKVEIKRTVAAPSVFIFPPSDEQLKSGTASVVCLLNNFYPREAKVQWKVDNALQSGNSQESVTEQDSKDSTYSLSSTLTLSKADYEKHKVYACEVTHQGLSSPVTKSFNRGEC
chain: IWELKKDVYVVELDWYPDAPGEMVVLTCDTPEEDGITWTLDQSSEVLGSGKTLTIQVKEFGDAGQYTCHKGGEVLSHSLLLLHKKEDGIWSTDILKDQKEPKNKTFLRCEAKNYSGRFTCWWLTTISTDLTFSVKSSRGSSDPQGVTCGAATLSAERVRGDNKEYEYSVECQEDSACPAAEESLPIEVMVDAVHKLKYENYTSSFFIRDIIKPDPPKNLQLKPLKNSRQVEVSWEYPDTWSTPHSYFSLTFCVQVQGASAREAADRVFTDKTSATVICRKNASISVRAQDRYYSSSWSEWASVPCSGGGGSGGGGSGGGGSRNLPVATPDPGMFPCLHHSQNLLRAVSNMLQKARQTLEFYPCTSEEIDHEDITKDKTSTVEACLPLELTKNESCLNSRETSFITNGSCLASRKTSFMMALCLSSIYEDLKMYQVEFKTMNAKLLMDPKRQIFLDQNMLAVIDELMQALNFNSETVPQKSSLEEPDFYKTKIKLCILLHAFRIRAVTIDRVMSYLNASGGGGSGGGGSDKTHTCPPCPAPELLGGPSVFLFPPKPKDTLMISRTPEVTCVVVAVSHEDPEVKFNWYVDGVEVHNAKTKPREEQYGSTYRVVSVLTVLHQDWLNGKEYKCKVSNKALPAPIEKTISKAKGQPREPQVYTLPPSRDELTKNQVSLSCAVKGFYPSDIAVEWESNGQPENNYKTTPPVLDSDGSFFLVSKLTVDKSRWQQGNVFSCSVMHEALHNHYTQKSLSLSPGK

change of the p-STAT4 EC50 in human T cells with low molecular weight heparin against without: 9.4 times
half maximal effective concentration (EC50) of p-STAT4 (Tyr693) in activated human T cells, AlphaLISA: 0.0145 nM
B3: T1.01 (anti-hu FAP/hu IL-12, hu IgG1 DANG) (bispecific antibody)
heavy: B1 heavy
light: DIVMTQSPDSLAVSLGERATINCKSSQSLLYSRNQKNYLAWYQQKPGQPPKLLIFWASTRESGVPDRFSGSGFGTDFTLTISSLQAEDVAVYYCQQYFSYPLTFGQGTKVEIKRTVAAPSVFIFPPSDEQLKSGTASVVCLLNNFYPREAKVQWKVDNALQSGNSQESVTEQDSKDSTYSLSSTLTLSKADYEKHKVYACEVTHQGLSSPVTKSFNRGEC
chain: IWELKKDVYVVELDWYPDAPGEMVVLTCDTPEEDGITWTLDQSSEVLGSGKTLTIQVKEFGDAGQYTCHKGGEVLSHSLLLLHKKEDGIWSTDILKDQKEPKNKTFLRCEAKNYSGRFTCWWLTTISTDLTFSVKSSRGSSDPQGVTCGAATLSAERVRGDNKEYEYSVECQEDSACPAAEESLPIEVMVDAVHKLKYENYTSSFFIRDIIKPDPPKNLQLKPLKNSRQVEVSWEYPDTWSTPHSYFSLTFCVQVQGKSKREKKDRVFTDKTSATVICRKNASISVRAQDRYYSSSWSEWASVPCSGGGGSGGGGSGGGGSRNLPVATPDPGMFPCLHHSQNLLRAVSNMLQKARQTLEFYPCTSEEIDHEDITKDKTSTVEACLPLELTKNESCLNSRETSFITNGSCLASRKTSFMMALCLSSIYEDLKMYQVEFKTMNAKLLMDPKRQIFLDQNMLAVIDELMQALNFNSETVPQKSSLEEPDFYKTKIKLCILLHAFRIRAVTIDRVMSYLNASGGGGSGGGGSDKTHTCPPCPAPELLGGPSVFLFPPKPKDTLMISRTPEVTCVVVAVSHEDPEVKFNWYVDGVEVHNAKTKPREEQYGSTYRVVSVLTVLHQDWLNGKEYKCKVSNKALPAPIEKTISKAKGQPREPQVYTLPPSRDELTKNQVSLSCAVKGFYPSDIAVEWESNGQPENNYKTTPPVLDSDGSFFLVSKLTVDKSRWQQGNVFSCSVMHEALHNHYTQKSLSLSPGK
